From article PMC8369199

Assays:
[1] = biological target: human complement C1q (human) (UniProt P02745); assay: BLI
[2] = biological target: FcγRIIIa V158 (high-affinity variant of FcγRIIIa) on engineered ADCC reporter effector cells
[3] = biological target: trastuzumab (human); assay: BLI; antibody variant on anti-human Fab-CH1 (Fab2G) sensors; FcγRI 6.25, 12.5, 25, 50 nM, then dissociation in kinetics buffer; 1:1 Langmuir model
[4] = biological target: MMP-9 cleaved TRZ-Fc4 (human); assay: as above

Sequence of His-tagged human Fc gamma RI (CD64) (P12314 16-292): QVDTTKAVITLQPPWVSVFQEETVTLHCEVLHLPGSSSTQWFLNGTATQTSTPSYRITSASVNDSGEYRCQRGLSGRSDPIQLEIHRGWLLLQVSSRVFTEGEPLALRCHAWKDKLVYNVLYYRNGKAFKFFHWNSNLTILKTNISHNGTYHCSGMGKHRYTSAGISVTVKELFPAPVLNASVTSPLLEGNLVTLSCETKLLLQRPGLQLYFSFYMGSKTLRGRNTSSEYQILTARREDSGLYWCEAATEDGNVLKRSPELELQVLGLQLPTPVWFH
Sequence of human complement C1q (human) (P02745 23-245, chain 1 of 3): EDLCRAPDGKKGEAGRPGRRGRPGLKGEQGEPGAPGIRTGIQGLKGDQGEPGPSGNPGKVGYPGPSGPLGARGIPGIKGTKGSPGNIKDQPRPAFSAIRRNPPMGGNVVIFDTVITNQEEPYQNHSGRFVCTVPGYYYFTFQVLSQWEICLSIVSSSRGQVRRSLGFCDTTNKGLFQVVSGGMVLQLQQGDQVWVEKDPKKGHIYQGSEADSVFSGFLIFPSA
Sequence of human complement C1q (human) (P02746 28-253, chain 2 of 3, further chain): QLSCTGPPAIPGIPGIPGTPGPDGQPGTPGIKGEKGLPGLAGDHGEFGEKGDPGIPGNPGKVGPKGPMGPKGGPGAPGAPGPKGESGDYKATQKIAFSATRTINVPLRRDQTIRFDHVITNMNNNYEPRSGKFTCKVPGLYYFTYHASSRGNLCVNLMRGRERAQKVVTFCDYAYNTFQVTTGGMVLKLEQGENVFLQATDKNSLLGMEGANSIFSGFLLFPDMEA
Sequence of human complement C1q (human) (P02747 29-245, chain 3 of 3, further chain): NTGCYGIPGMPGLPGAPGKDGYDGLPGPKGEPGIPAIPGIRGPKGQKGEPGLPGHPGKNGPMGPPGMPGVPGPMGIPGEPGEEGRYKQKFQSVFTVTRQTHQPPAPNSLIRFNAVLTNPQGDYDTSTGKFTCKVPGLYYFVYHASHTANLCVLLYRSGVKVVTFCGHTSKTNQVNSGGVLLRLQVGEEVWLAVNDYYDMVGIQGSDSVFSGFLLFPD

## trastuzumab
[1]
  Kd: 209 nM

## trastuzumab (antibody)
[2]
  ADCC reporter assay, fold induction, SK-BR-3 target cells, with MMP-2/MMP-9 inhibitor, antibody 10 fM to 100 nM; highest induction, reached at 1 nM (fold induction): 57.6
  EC50 of ADCC reporter induction, SK-BR-3 target cells: 0.039 nM

## His-tagged human Fc gamma RI (CD64) (from UniProt P12314 16-292) (receptor)
[3]
  Kd: 1.3 nM
[4]
  Kd: 1.6 nM
